Laboratory results from article PMC9813255, “PQBP5/NOL10 maintains and anchors the nucleolus under physiological and osmotic stress conditions” (Nature Communications, 2023).

Target: T1, human nucleolin (His-tag fusion protein) (human, UniProt P19338 1-710)
T1 construct: nucleolin, human, amplified from HEK293 cDNA into pET-28a; the printed primers run from the start codon to the stop codon; this is read from the printed primers; source: E. coli Rosetta 2(DE3), purified (Ni-NTA agarose)
Assay: SPR; Biacore T100, 25 °C; one protein immobilised on a CM5 chip (200 RU), analytes at 0-50 nM, 180 s at 10 μl/min; 25 mM Tris-HCl, 500 mM NaCl, 10% glycerol, 1% Triton X-100, pH 8.0
Conditions: both partners purified

T1 sequence (P19338 whole entry, the tested form may be a part): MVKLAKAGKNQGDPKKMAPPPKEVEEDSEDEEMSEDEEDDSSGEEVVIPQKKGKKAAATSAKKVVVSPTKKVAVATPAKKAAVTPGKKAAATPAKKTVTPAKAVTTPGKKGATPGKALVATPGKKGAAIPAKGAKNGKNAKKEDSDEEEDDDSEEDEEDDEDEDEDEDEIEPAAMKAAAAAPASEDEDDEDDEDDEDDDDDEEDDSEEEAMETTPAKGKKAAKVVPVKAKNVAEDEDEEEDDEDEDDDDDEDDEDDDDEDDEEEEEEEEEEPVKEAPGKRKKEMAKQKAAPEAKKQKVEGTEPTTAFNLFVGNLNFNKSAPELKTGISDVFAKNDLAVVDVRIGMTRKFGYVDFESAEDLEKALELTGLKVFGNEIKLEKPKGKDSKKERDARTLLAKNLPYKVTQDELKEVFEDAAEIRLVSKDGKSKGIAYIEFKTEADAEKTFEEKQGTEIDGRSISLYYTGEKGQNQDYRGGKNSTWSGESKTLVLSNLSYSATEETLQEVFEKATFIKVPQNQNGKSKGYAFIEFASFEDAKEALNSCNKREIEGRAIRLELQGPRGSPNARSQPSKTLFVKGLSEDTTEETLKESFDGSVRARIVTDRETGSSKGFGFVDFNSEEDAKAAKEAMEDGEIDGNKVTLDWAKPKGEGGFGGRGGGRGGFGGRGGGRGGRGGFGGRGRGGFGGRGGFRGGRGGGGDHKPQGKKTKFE

B1: human fibrillarin (His-tag fusion protein) (natural protein, UniProt P22087 1-321, looked up)
chain: MKPGFSPRGGGFGGRGGFGDRGGRGGRGGFGGGRGRGGGFRGRGRGGGGGGGGGGGGGRGGGGFHSGGNRGRGRGGKRGNQSGKNVMVEPHRHEGVFICRGKEDALVTKNLVPGESVYGEKRVSISEGDDKIEYRAWNPFRSKLAAAILGGVDQIHIKPGAKVLYLGAASGTTVSHVSDIVGPDGLVYAVEFSHRSGRDLINLAKKRTNIIPVIEDARHPHKYRMLIAMVDVIFADVAQPDQTRIVALNAHTFLRNGGHFVISIKANCIDSTASAEAVFASEVKKMQQENMKPQEQLTLEPYERDHAVVVGVYRPPPKVKN
notes: fibrillarin, human, amplified from HEK293 cDNA into pET-28a; the printed primers run from the start codon to the stop codon; this is read from the printed primers; source: E. coli Rosetta 2(DE3), purified (Ni-NTA agarose)
binding result: binds
